Earlier results, collected in article PMC9027846.

Target: Plasmin (Homo sapiens) (UniProt P00747)
Experiment: BLI

Sequence of UniProt P00747 (P00747 581-810): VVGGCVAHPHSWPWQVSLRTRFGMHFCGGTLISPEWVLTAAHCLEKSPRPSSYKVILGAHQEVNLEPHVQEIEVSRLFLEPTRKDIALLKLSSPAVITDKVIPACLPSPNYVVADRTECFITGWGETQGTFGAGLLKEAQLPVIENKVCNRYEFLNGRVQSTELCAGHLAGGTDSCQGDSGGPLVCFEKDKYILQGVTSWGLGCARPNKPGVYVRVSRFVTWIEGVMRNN

Substance: AaTI (from UniProt Q177W0)
- Kd: 62.8 nM
